Tests used:
purified protein = substrate: O=CCO; assay: purified protein; type: biochemical, Carboxydothermus hydrogenoformans; conditions: hydroxypyruvate 100 mM as ketol donor, TPP, CaCl2, 10 mM HEPES pH 7.2, 0.1 M NaCl, room temperature
[1] = target: the molecule itself; assay: SEC; each protein alone on a calibrated Superdex 200 HiLoad 16/60 column, 10 mM HEPES, 0.1 M NaCl, pH 7.2; apparent molecular mass
[2] = target: the molecule itself; assay: crystal structure; reconstituted ChTK-F α2β2 with TPP and Ca2+, 2.1 M DL-malic acid pH 7.0, space group I222, 1.4 Å (PDB 6YAK); also a PEG 1500 crystal form at 2.1 Å

B1: ChTK-F (Carboxydothermus hydrogenoformans Z-2901) (protein)
chain 1: MQDEILNLKLIANQLRQHVVKMVGEANSGHPGGSLSAADILAVLFFKEMRIDPANPKWQDRDRFVLSKGHASPVLYAALAERGFFPKEWLSQFRKINSPLQGHPDMKKVPGVEMSTGSLGQGFSTAVGMALGLKLDRSPARVYVLLGDGEIQEGIVWEAAMAAAHYKLNNLTAILDYNGLQIDGPVQEVMNPEPVADKWRSFGFKVITVDGHNIPEIINAIDAARLHLEGPTIIIAKTVKGKGVSFMENRVEWHGSAPKPEQVAEALSELQVGREKLWEE
chain 2: MGGIATREAYGKALVELGQENPKIVVLDADLSKSTKTSDFAKAFPERFFNMGIAEQNLMGVAAGLSTVGKIPFASTFAVFAAGRAFEIIRNSICYPKLNVKIAATHAGLTVGEDGASHQAIEDLALMRVLPNMQVFVPADAAQTRAIVKKAAEIEGPVYIRLGRSGVPEVFSPDIRFEPGRGTVLKEGKDVTIVALGIMTAKALEAAKMLEAEGIAARVVDMASLKPIDRELLVESARLTGAVVTAEEHSVIGGLGSAVAEVLSEEYPIPVVKVGVNDVFGESGTPQALLEKYGLTARDVVAAVQKALTLKR
notes: two split-gene subunits (alpha ChTK-N, PP domain)
Protein B1 has a Km (purified protein) of 41 ± 4 mM.

B2: ChTK-N, N-terminal 'split-gene' transketolase polypeptide (PP domain) of Carboxydothermus hydrogenoformans (natural protein, Carboxydothermus hydrogenoformans Z-2901)
chain: MQDEILNLKLIANQLRQHVVKMVGEANSGHPGGSLSAADILAVLFFKEMRIDPANPKWQDRDRFVLSKGHASPVLYAALAERGFFPKEWLSQFRKINSPLQGHPDMKKVPGVEMSTGSLGQGFSTAVGMALGLKLDRSPARVYVLLGDGEIQEGIVWEAAMAAAHYKLNNLTAILDYNGLQIDGPVQEVMNPEPVADKWRSFGFKVITVDGHNIPEIINAIDAARLHLEGPTIIIAKTVKGKGVSFMENRVEWHGSAPKPEQVAEALSELQVGREKLWEE
notes: forms the PP domain; calculated mass of the His-tagged protein 31.0 kDa; chain A of PDB 6YAK; The gene was cloned into the LIC site of pLATE51; By gel filtration the free protein elutes as a dimer; two copies stand in the α2β2 heterotetramer ChTK-F; also called α subunit of ChTK-F (α2β2); source: E. coli BL21 DE3*, purified (heat treatment at 50°C, HisTrap/Ni-NTA, Superdex 200 gel filtration)
In the case of B2, the “stoichiometry N” value [1] is reported as 2.

B3: ChTK-C, C-terminal 'split-gene' transketolase polypeptide (Pyr and C-terminal domains) of Carboxydothermus hydrogenoformans (natural protein, Carboxydothermus hydrogenoformans Z-2901)
chain: MGGIATREAYGKALVELGQENPKIVVLDADLSKSTKTSDFAKAFPERFFNMGIAEQNLMGVAAGLSTVGKIPFASTFAVFAAGRAFEIIRNSICYPKLNVKIAATHAGLTVGEDGASHQAIEDLALMRVLPNMQVFVPADAAQTRAIVKKAAEIEGPVYIRLGRSGVPEVFSPDIRFEPGRGTVLKEGKDVTIVALGIMTAKALEAAKMLEAEGIAARVVDMASLKPIDRELLVESARLTGAVVTAEEHSVIGGLGSAVAEVLSEEYPIPVVKVGVNDVFGESGTPQALLEKYGLTARDVVAAVQKALTLKR
notes: Pyr domain residues 1-162 and C-terminal domain residues 164-312; calculated mass of the His-tagged protein 33.2 kDa; chain D of PDB 6YAK, all chains of PDB 6YAJ; The gene was cloned into the LIC site of pLATE51; By gel filtration the free protein elutes as a tetramer; two copies stand in the α2β2 heterotetramer ChTK-F; also called β subunit of ChTK-F (α2β2); ChTK β4; source: E. coli BL21 DE3*, …
B3 was tested, and the “stoichiometry N” value [1] was 4 and the “stoichiometry N” value [2] was 2.

Reference: PMC7661550, “A ‘Split-Gene’ Transketolase From the Hyper-Thermophilic Bacterium Carboxydothermus hydrogenoformans: Structure and Biochemical Characterization” (Frontiers in Microbiology, 2020)
